“And” between values parts separate entries of the source, which are not always exact repeats. Identical values can stand only once. Where only a bound is given, the exact number is not on record here.

For series [1] the following is noted: Stroh, et al., 2017; cited from earlier work.
The target in series [2] is mouse PD-L1 (Mus musculus, UniProt Q9EP73). The following applies: read-out: dissociation constant (Kd), mouse PD-L1; cited from earlier work.
For series [3], the target named is T1, PD-L1 in MDAMB231 tumors (Homo sapiens, UniProt Q9NZQ7).
T1 construct: MDAMB231 breast cancer cells, which naturally express PD-L1; endogenous in cells; host or cells: MDAMB231 (ATCC); as xenografts in NSG mice for the in vivo units
Kind of series: Tumor PD-L1 engagement by PD-L1 mAbs measured with [64Cu]WL12, MDAMB231 xenografts. It counts as in vivo. The method, then:
To evaluate the effect of dose on tumor PD-L1 occupancy at the tumor, mice bearing MDAMB231 tumors were injected with escalating doses of AtzMab from 0.009 to 24 mg/kg body weight.

For series [4], the target named is T2, PD-L1 in A549-iPDL1 cells (Homo sapiens, UniProt Q9NZQ7).
T2 construct: expressed in transfected cells; host or cells: A549 NSCLC cells, lentiviral pINDUCER20, G418-selected, doxycycline-induced
As to the kind of experiment: Binding studies in doxycycline-inducible A549-iPDL1 cells. It counts as cell-based. The following applies: 60 nM mAb. An excerpt:
To do so, an A549 NSCLC cell line with doxycycline-inducible PD-L1 expression (A549-iPD-L1) was generated. A549 is a Kras G12S lung adenocarcinoma cell line that expresses low PD-L1 at baseline.

Series [5] addresses T3, PD-L1 in HCC827, H226, hPD-L1 and MDAMB231 cells (Homo sapiens, UniProt Q9NZQ7).
T3 construct: Each of which naturally expresses PD-L1; endogenous in cells; host or cells: HCC827, H226, MDAMB231 (endogenous) and CHO-hPD-L1 (stably transfected)
Kind of series: [64Cu]WL12 binding to PD-L1-positive cells in the presence of 60 nM mAbs. In kind it is cell-based. The following applies: 60 nM mAb vs PBS control. As to the method: Non-interacting residues are shown in gray. […] Mean fluorescence intensities were determined by flow cytometry.
HCC827 and H226 non-small cell lung cancer (NSCLC) cells also were tested.

Series [6] deals with T4, PD-L1 in A549-iPDL1 tumors (Homo sapiens, UniProt Q9NZQ7).
T4 construct: expressed in transfected cells; host or cells: A549 NSCLC cells, lentiviral pINDUCER20, G418-selected, doxycycline-induced; as xenografts for the in vivo unit
Kind of series: [64Cu]WL12 PET and biodistribution in A549-iPDL1 and A549 xenografts. In kind it is in vivo. The following applies: AtzMab 20 mg/kg. An excerpt:
To do so, an A549 NSCLC cell line with doxycycline-inducible PD-L1 expression (A549-iPD-L1) was generated. A549 is a Kras G12S lung adenocarcinoma cell line that expresses low PD-L1 at baseline. It has been transduced with PD-L1 in the all-in-one lentivirus pINDUCER20 vector (Meerbrey, et al., 2011), selected with G418, confirmed for PD-L1 induction by flow cytometry (FIG. 37A) and used for in vitro and in vivo studies. Cy5-PD-L1-mAbs binding to doxycycline-treated A549-iPDL1 cells was blocked by WL12 validating the specificity of WL12 (FIG. 37B). […] Accordingly, it is expected that PET will play a key role in quantifying dynamic changes in PD-L1 expression within the standard clinical work flow, providing a novel way to inform therapy decisions.

For series [7], the target named is T1, PD-L1 in MDAMB231 tumors. As to the kind of experiment: Tumor PD-L1 engagement by PD-L1 mAbs measured with [64Cu]WL12, MDAMB231 xenografts. In kind it is in vivo. The following applies: AtzMab 20 mg/kg, AveMab 10 mg/kg, DurMab 10 mg/kg, 24 h prior to tracer.
The target in series [8] is T5, PD-L1 in hPD-L1 tumors (Homo sapiens, UniProt Q9NZQ7).
T5 construct: expressed in transfected cells; grown as tumours in NSG mice for the in vivo units
As to the kind of experiment: Tumor PD-L1 engagement by AtzMab measured with [64Cu]WL12, hPD-L1/CHO tumors. In kind it is in vivo, mouse. Conditions: AtzMab 20 mg/kg 24 h prior to tracer. An excerpt:
2.1.3.3 PD-L1 therapeutic antibody accumulation in the tumors by PD-L1 PET: While evaluating the specificity of WL12 for PD-L1, it was discovered that WL12 competes with AtzMab to the same binding site on PD-L1. This provides a novel and previously unanticipated means to evaluate AtzMab therapy at tumor sites, where it is needed, using PD-L1-directed PET. Improved understanding of the distribution of PD-L1 antibodies in tumors may impact clinical antibody dosing and therapeutic monitoring. Therefore, the ability of [^64Cu]WL12-PET to assess AtzMab binding to PD-L1 within tumors was tested. Accumulation of radioactivity in hPD-L1 tumors was reduced by 80% in mice injected with AtzMab (20 mg/kg) as quantified by [^64Cu]WL12-PET and biodistribution studies (FIG. 21A, FIG. 21B, and FIG. 21C). […] The applicability of this approach was extended to cancer cell lines with native increase in PD-L1 expression.
To assess the effect of a single dose of AtzMab on targeting different PD-L1 levels in the tumors, PET and biodistribution studies were performed in tumors derived from the CHO-hPDL1 cell line, which has four- to ten-fold higher PD-L1 expression than NSCLC cells (FIG. 36). […] Those observations were confirmed by strong and week immunoreactivity observed in hPD-L1 and CHO tumors, respectively (FIG. 35I).

Series [9] deals with T6, PD-L1 in HCC827 xenografts (Homo sapiens, UniProt Q9NZQ7).
T6 construct: Each of which naturally expresses PD-L1; endogenous in cells; host or cells: HCC827 and H226 NSCLC cells; as xenografts in NOD scid gamma mice for the in vivo units
Kind of series: Tumor PD-L1 engagement by AtzMab measured with [64Cu]WL12, HCC827 xenografts. Conditions: AtzMab 20 mg/kg for 24 h, vs saline controls. In kind it is in vivo. An excerpt: (§1) 3.3.2 Quantifying Tumor PD-L1 engagement by AtzMab. To evaluate PD-L1 engagement by the therapeutic mAbs at the tumor non-invasively in vivo, NSCLC xenograft models were studied. Those models were selected because nearly 50% of NSCLCs are PD-L1-positive and PD-L1 IHC is used as a predictive biomarker in patients with NSCLC undergoing immune checkpoint therapy (Mansfield, et al., 2016). […] There is a clear reduction in the accumulation of radioactivity in tumors of AtzMab-treated mice, indicating reduced levels of available PD-L1 sites, compared to treated controls (FIG. 35A and FIG. 35B). […] PD-L1 expression levels were confirmed by PD-L1 IHC of the xenografts (FIG. 35C and FIG. 35F).

For series [10], the target named is T7, PD-L1 in H226 xenografts (Homo sapiens, UniProt Q9NZQ7).
T7 construct: Each of which naturally expresses PD-L1; endogenous in cells; host or cells: HCC827 and H226 NSCLC cells; as xenografts in NOD scid gamma mice for the in vivo units
As to the kind of experiment: Tumor PD-L1 engagement by AtzMab measured with [64Cu]WL12, H226 xenografts. In kind it is in vivo. The following applies: AtzMab 20 mg/kg for 24 h, vs saline controls.
Source text: as §1

T1 sequence (Q9NZQ7 19-290): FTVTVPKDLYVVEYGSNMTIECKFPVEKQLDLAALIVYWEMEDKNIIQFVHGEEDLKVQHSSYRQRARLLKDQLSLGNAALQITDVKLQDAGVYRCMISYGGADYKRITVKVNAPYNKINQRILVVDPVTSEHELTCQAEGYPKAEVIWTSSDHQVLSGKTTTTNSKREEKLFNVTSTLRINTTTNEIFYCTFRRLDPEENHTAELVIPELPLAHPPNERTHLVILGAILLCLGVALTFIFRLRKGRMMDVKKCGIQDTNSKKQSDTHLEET
T5 sequence (Q9NZQ7 19-290): as above
T3 sequence (Q9NZQ7 19-290): as above
T6 sequence (Q9NZQ7 19-290): as above
T2 sequence (Q9NZQ7 19-290): as above
T7 sequence (Q9NZQ7 19-290): as above
T4 sequence (Q9NZQ7 19-290): as above
Chain of mouse PD-L1 (Q9EP73 19-290): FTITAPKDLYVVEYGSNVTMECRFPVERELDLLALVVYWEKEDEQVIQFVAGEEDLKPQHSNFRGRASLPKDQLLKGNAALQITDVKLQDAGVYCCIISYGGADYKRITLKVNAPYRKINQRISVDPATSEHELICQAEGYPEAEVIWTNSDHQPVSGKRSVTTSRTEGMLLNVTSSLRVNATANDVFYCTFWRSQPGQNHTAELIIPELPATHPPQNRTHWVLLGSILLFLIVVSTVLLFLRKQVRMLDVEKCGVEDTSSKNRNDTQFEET

Regarding “AtzMab: therapeutic PD-L1 antibody Atezolizumab”, the linearity of pharmacokinetics result in [1] is “non-linear PK below 0.6-1 mg/kg and linear PK above 1 mg/kg dose”. In addition, the Kd in series [2] was 0.13 nM. The “[64Cu]WL12 uptake compared to untreated controls, PET” value in series [3] (AtzMab 0.06 mg/kg) was “no difference”. The “[64Cu]WL12 tumor uptake at 120 h compared to 24 h” value is recorded as “significant increase” in [3] (AtzMab 0.6 mg/kg) and “no significant temporal difference” in series [3] (AtzMab 10 or 20 mg/kg). The “target engagement at the tumor” value in [3] (AtzMab 3.2 mg/kg) is approximately 100%. Moreover, the “PD-L1 occupancy at 24 and 120 h” value is “increased accumulation of [^64Cu]WL12 can be seen at 120 h but not at 24 h” in series [3] (atezolizumab 1 mg/Kg) and “complete blockade of PD-L1” in series [3] (atezolizumab 10 mg/Kg). For the same substance, the “less uptake of [64Cu]WL12 in tumors vs saline controls” value in [3] (mAb 24 h prior, 120 min after tracer injection, ex vivo) is “approximately 60%”. The “decrease of [64Cu]WL12 binding to doxycycline-treated A549-iPDL1 cells” value in series [4] turned out to be 65%. Moreover, in series [5], the “[64Cu]WL12 binding to PD-L1-positive cells” value is “inhibited”. Further, the “decrease of [64Cu]WL12 uptake in A549-iPDL1 tumors” value in [6] is recorded as more than 75%. The “[64Cu]WL12 uptake in MDAMB231 xenografts” value in [7] is “significantly reduced”. In addition, the “reduction of [64Cu]WL12 accumulation in hPD-L1 tumors” value in series [8] was 80% and 77%. Moreover, the “reduction in [64Cu]WL12 % ID/g, HCC827 xenografts” value in [9] is reported as 47%. In addition, the “reduction in [64Cu]WL12 % ID/g, H226 xenografts” value in series [10] amounted to 34%.
